Results from the supplement of paper PMC7877785.
± gives the uncertainty stated by the source.

Test: self-splicing fitness, log relative to wild type (ln ratio); higher = more splicing; Tetrahymena group I intron in knt gene, E. coli kanamycin selection, DiMSum; sequences stand for … in CUCUCU…GGAGGGAAAAGUUAUCAGGCAUGCACCUGGUAGCUAGUCUUUAAACCAAUAGAUUGCAUCGGUUUAAAAGGCAAGACCGUCAAAUUGCGGGAAAGGGGUCAACAGCCGUUCAGUACCAAGUCUCAGGGGAAACUUUGAGAUGGCCUUGCAAAGGGUAUGGUAAUAAGCUGACGGACAUGGUCCUAACCACGCAGCCAAGUCCUAAGUCAACAGAUCUUCUGUUGAUAUGGAUGCAGUUCACAGACUAAAUGUCGGUCGGGGAAGAUGUAUUCUUCUCAUAAGAUAUAGUCGGACCUCUCCUUAAUGGGAGCUAGCGGAUGAAGUGAUGCAACACUGGAGCCGCUGGGAACUAAUUUGUAUGCGAAAGUAUAUUGAUUAGUUUUGGAGUACUCGUGGUCG
How it was run: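 DiMSum derived fitness as the error-weighted combination of fold changes across replicates, kanamycin versus no kanamycin, normalised to wild type. E. coli BL21(DE3) held the library, which randomised all eight P1ex-region intron nucleotides within the knt kanamycin-resistance gene on pET-22b(+). Six replicate transformations grew overnight at 37°C or 30°C on LB agar with or without 25 μg/mL kanamycin, also containing 100 μg/mL carbenicillin, 50 μM IPTG and 0.2% rhamnose, and pooled colonies were amplicon-sequenced on an Illumina HiSeq 2500.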

| Sequence | self-splicing fitness (ln) (30 °C) | self-splicing fitness (ln) (37 °C) |
| --- | --- | --- |
| GUGGAGCAAUAUUACGGAUC | -1.1 ± 0.25 | -0.583 ± 0.21 |
| UAGUAGCAAUAUUACGACGG | -1.21 ± 0.16 | -0.306 ± 0.21 |
| GAUAAGCAAUAUUACGGCGU | 0.319 ± 0.077 | 0.486 ± 0.1 |
| CUAAAGCAAUAUUACGGGCC | -2.8 ± 0.23 | -1.28 ± 0.2 |
| AUAGAGCAAUAUUACGUUAA | -2.32 ± 0.19 | -1.76 ± 0.23 |
| UGGUAGCAAUAUUACGCUUU | -1.85 ± 0.12 | -1.46 ± 0.12 |
| AAAUAGCAAUAUUACGCUAA | -2.19 ± 0.21 | -1.52 ± 0.2 |
| CGCAAGCAAUAUUACGCAAC | -3.19 ± 0.36 | -3.11 ± 0.37 |
| GCGCAGCAAUAUUACGGAAG | -1.64 ± 0.12 | -1.66 ± 0.11 |
| AUGAAGCAAUAUUACGCCGA | -0.724 ± 0.11 | -0.149 ± 0.15 |
| GCGCAGCAAUAUUACGUGAC | -1.83 ± 0.095 | -1.03 ± 0.087 |
| AGGCAGCAAUAUUACGUGAC | -3.86 ± 0.21 | -1.84 ± 0.14 |
| GGGAAGCAAUAUUACGUCGA | -0.874 ± 0.12 | -0.739 ± 0.13 |
| UCUGAGCAAUAUUACGUCUA | -1.67 ± 0.18 | -2.17 ± 0.26 |
| GGCAAGCAAUAUUACGCCAA | -1.93 ± 0.24 | -1.36 ± 0.21 |
| GGCAAGCAAUAUUACGCACG | -1 ± 0.13 | 0.171 ± 0.24 |
| AUGAAGCAAUAUUACGCGCU | -0.561 ± 0.082 | 0.35 ± 0.11 |
| UAGCAGCAAUAUUACGUCUA | -0.114 ± 0.073 | 0.146 ± 0.084 |
| GAGCAGCAAUAUUACGCUCA | -2.14 ± 0.2 | -1.91 ± 0.16 |
| GUAAAGCAAUAUUACGCAUA | -1.1 ± 0.098 | -0.728 ± 0.11 |
| UGCCAGCAAUAUUACGACUA | -0.442 ± 0.1 | -0.0497 ± 0.1 |
| CGCAAGCAAUAUUACGAGAG | -2.52 ± 0.1 | -2.24 ± 0.15 |
| GGUAAGCAAUAUUACGGUCA | -0.727 ± 0.1 | 0.416 ± 0.11 |
| UGGGAGCAAUAUUACGGAUU | -4.21 ± 0.31 | -3.06 ± 0.26 |
| AGCCAGCAAUAUUACGAGCG | -1.36 ± 0.095 | -0.0302 ± 0.13 |

| Sequence | self-splicing fitness (ln) (30 °C) | self-splicing fitness (ln) (37 °C) |
| --- | --- | --- |
| AAUAAGCAAUAUUACGGUUG | -2.86 ± 0.12 | -1.97 ± 0.14 |
| GCGAAGCAAUAUUACGUUGU | -3.58 ± 0.21 | -2.58 ± 0.18 |
| UUUAAGCAAUAUUACGCGUU | -2.79 ± 0.19 | -2.51 ± 0.23 |
| CUAUAGCAAUAUUACGACUA | -1.87 ± 0.47 |  |
| GCGAAGCAAUAUUACGUCAC |  | -2.82 ± 0.3 |
| CGAAAGCAAUAUUACGCUAU | -4.13 ± 0.36 | -2.4 ± 0.27 |
| CGCGAGCAAUAUUACGCCUC | -1.53 ± 0.44 | -1.38 ± 0.43 |
| CAAGAGCAAUAUUACGGCAU | -3.14 ± 0.23 | -2.02 ± 0.21 |
| UCCAAGCAAUAUUACGGUGC | -3.58 ± 0.14 | -2.44 ± 0.12 |
| GCUUAGCAAUAUUACGGUAG | -2.53 ± 0.4 |  |
| GCCUAGCAAUAUUACGUCUA | -3.26 ± 0.38 | -1.73 ± 0.2 |
| CGAUAGCAAUAUUACGAACG | -0.892 ± 0.11 | 0.0703 ± 0.12 |
| UCCUAGCAAUAUUACGGUCG | -1.69 ± 0.14 | -1.59 ± 0.17 |
| CUUCAGCAAUAUUACGCACC | -3.9 ± 0.47 | -2.61 ± 0.35 |
| AGAAAGCAAUAUUACGCUGU | -2.34 ± 0.14 | -1.98 ± 0.16 |
| UGCCAGCAAUAUUACGCGUU | -1.67 ± 0.069 | -0.989 ± 0.082 |
| UUCAAGCAAUAUUACGCCGA | -0.5 ± 0.18 | -0.423 ± 0.23 |
| UCAAAGCAAUAUUACGCCAA | -2.7 ± 0.28 | -2.12 ± 0.37 |
| GAUCAGCAAUAUUACGACUU | 0.107 ± 0.092 | -0.119 ± 0.11 |
| UCGUAGCAAUAUUACGUCCG | -0.957 ± 0.074 | -0.517 ± 0.091 |
| UACAAGCAAUAUUACGAUCC | -3.27 ± 0.27 | -1.78 ± 0.24 |
| UUCGAGCAAUAUUACGGACA | -2.7 ± 0.22 | -1.79 ± 0.17 |
| AAUCAGCAAUAUUACGUCUA | -0.491 ± 0.069 | -0.133 ± 0.076 |
| CACUAGCAAUAUUACGGAAU | -4 ± 0.27 | -2.3 ± 0.32 |
| CCGUAGCAAUAUUACGGGUC | -2.96 ± 0.21 | -2.55 ± 0.2 |

| Sequence | self-splicing fitness (ln) (30 °C) | self-splicing fitness (ln) (37 °C) |
| --- | --- | --- |
| AAACAGCAAUAUUACGACCG | -1.6 ± 0.14 | 0.0387 ± 0.18 |
| GCACAGCAAUAUUACGCCCG | -1.84 ± 0.17 | -0.0618 ± 0.19 |
| CGAUAGCAAUAUUACGGAGG | -1.28 ± 0.14 | -1.17 ± 0.15 |
| UUACAGCAAUAUUACGUUAG | -0.713 ± 0.086 | 0.208 ± 0.12 |
| CGCAAGCAAUAUUACGAGUC | -3.43 ± 0.13 | -2.97 ± 0.19 |
| GCGCAGCAAUAUUACGUGCG | -4.36 ± 0.28 | -2.7 ± 0.21 |
| ACUCAGCAAUAUUACGAGGC | -3.27 ± 0.34 | -2.56 ± 0.3 |
| GACCAGCAAUAUUACGAGAA | -1.67 ± 0.15 | -1.05 ± 0.15 |
| CAUCAGCAAUAUUACGAAGG | -0.555 ± 0.048 | -0.58 ± 0.066 |
| UAGAAGCAAUAUUACGGGUC | -3.55 ± 0.33 | -2.84 ± 0.44 |
| CAACAGCAAUAUUACGAGUA | -1.85 ± 0.1 | -1.04 ± 0.082 |
| CCUCAGCAAUAUUACGGUCU | -3.73 ± 0.25 | -2.56 ± 0.27 |
| CGCCAGCAAUAUUACGCGUC | -3.41 ± 0.17 | -2.33 ± 0.15 |
| GUUCAGCAAUAUUACGCCGU | -1.57 ± 0.1 | -0.339 ± 0.12 |
| CCGAAGCAAUAUUACGUGAU | -3.4 ± 0.13 | -2.84 ± 0.19 |
| UAAGAGCAAUAUUACGCGCU | -3.17 ± 0.28 | -3.35 ± 0.39 |
| CUACAGCAAUAUUACGAGGU | -2.63 ± 0.13 | -3.03 ± 0.27 |
| GUACAGCAAUAUUACGGUGG | -2.22 ± 0.1 | -1.63 ± 0.11 |
| UCUGAGCAAUAUUACGUUAA | -3.47 ± 0.29 | -0.512 ± 0.15 |
| CGUUAGCAAUAUUACGCACA | -1.33 ± 0.17 | -0.0289 ± 0.28 |
| AAAUAGCAAUAUUACGCGUC | -2.19 ± 0.16 | -0.755 ± 0.19 |
| AUCCAGCAAUAUUACGGUCA | -0.209 ± 0.065 | 0.168 ± 0.072 |
| GCUAAGCAAUAUUACGGCAG | -3.28 ± 0.34 | -2.85 ± 0.34 |
| CCGGAGCAAUAUUACGAGGG | -2.13 ± 0.27 | -1.47 ± 0.29 |
| GUGAAGCAAUAUUACGCCGC | -2.25 ± 0.16 | -1.5 ± 0.26 |
